B1: IgG1-HER2 (IgG1-HER2-169-K409R), wild-type Fc (antibody)
heavy: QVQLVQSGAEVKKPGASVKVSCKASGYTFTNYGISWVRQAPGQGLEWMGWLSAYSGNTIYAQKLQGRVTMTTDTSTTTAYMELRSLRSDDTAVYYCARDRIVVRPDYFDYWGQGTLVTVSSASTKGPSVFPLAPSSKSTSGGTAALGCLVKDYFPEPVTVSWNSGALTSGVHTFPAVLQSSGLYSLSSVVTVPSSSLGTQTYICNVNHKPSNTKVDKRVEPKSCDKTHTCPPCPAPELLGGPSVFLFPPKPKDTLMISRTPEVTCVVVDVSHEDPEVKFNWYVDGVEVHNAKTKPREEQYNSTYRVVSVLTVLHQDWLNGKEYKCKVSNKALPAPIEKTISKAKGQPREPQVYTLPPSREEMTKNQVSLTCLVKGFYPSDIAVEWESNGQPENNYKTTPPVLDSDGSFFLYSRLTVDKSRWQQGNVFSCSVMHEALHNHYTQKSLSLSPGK
VL: EIVLTQSPATLSLSPGERATLSCRASQSVSSYLAWYQQKPGQAPRLLIYDASNRATGIPARFSGSGSGTDFTLTISSLEPEDFAVYYCQQRSNWPRTFGQGTKVEIK
B2: IgG1-HER2-LALA (IgG1-HER2-169-K409R with L234A/L235A) (antibody)
heavy: QVQLVQSGAEVKKPGASVKVSCKASGYTFTNYGISWVRQAPGQGLEWMGWLSAYSGNTIYAQKLQGRVTMTTDTSTTTAYMELRSLRSDDTAVYYCARDRIVVRPDYFDYWGQGTLVTVSSASTKGPSVFPLAPSSKSTSGGTAALGCLVKDYFPEPVTVSWNSGALTSGVHTFPAVLQSSGLYSLSSVVTVPSSSLGTQTYICNVNHKPSNTKVDKRVEPKSCDKTHTCPPCPAPEAAGGPSVFLFPPKPKDTLMISRTPEVTCVVVDVSHEDPEVKFNWYVDGVEVHNAKTKPREEQYNSTYRVVSVLTVLHQDWLNGKEYKCKVSNKALPAPIEKTISKAKGQPREPQVYTLPPSREEMTKNQVSLTCLVKGFYPSDIAVEWESNGQPENNYKTTPPVLDSDGSFFLYSRLTVDKSRWQQGNVFSCSVMHEALHNHYTQKSLSLSPGK
VL: EIVLTQSPATLSLSPGERATLSCRASQSVSSYLAWYQQKPGQAPRLLIYDASNRATGIPARFSGSGSGTDFTLTISSLEPEDFAVYYCQQRSNWPRTFGQGTKVEIK
notes: IgG1, K409R
B3: IgG1-HER2-DANQ (IgG1-HER2-169-K409R with D265A/N297Q) (antibody)
heavy: QVQLVQSGAEVKKPGASVKVSCKASGYTFTNYGISWVRQAPGQGLEWMGWLSAYSGNTIYAQKLQGRVTMTTDTSTTTAYMELRSLRSDDTAVYYCARDRIVVRPDYFDYWGQGTLVTVSSASTKGPSVFPLAPSSKSTSGGTAALGCLVKDYFPEPVTVSWNSGALTSGVHTFPAVLQSSGLYSLSSVVTVPSSSLGTQTYICNVNHKPSNTKVDKRVEPKSCDKTHTCPPCPAPELLGGPSVFLFPPKPKDTLMISRTPEVTCVVVAVSHEDPEVKFNWYVDGVEVHNAKTKPREEQYQSTYRVVSVLTVLHQDWLNGKEYKCKVSNKALPAPIEKTISKAKGQPREPQVYTLPPSREEMTKNQVSLTCLVKGFYPSDIAVEWESNGQPENNYKTTPPVLDSDGSFFLYSRLTVDKSRWQQGNVFSCSVMHEALHNHYTQKSLSLSPGK
VL: EIVLTQSPATLSLSPGERATLSCRASQSVSSYLAWYQQKPGQAPRLLIYDASNRATGIPARFSGSGSGTDFTLTISSLEPEDFAVYYCQQRSNWPRTFGQGTKVEIK
notes: IgG1, K409R
B4: IgG1-HER2-DAPS (IgG1-HER2-169-K409R with D265A/P331S) (antibody)
heavy: QVQLVQSGAEVKKPGASVKVSCKASGYTFTNYGISWVRQAPGQGLEWMGWLSAYSGNTIYAQKLQGRVTMTTDTSTTTAYMELRSLRSDDTAVYYCARDRIVVRPDYFDYWGQGTLVTVSSASTKGPSVFPLAPSSKSTSGGTAALGCLVKDYFPEPVTVSWNSGALTSGVHTFPAVLQSSGLYSLSSVVTVPSSSLGTQTYICNVNHKPSNTKVDKRVEPKSCDKTHTCPPCPAPELLGGPSVFLFPPKPKDTLMISRTPEVTCVVVAVSHEDPEVKFNWYVDGVEVHNAKTKPREEQYNSTYRVVSVLTVLHQDWLNGKEYKCKVSNKALPASIEKTISKAKGQPREPQVYTLPPSREEMTKNQVSLTCLVKGFYPSDIAVEWESNGQPENNYKTTPPVLDSDGSFFLYSRLTVDKSRWQQGNVFSCSVMHEALHNHYTQKSLSLSPGK
VL: EIVLTQSPATLSLSPGERATLSCRASQSVSSYLAWYQQKPGQAPRLLIYDASNRATGIPARFSGSGSGTDFTLTISSLEPEDFAVYYCQQRSNWPRTFGQGTKVEIK
notes: IgG1, K409R
B5: IgG1-HER2-DA (IgG1-HER2-169-K409R with D265A) (antibody)
heavy: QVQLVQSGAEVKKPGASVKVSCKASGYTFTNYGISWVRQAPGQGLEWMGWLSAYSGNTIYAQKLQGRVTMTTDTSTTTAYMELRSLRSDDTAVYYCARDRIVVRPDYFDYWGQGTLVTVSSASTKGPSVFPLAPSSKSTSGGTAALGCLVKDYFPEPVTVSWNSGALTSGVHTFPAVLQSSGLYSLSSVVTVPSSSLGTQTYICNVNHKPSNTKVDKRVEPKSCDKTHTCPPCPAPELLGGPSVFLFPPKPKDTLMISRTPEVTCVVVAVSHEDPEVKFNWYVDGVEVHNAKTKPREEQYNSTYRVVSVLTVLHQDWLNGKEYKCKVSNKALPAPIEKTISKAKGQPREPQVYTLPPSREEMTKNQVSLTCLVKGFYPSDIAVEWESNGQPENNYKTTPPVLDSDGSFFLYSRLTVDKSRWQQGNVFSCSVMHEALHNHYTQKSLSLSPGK
VL: EIVLTQSPATLSLSPGERATLSCRASQSVSSYLAWYQQKPGQAPRLLIYDASNRATGIPARFSGSGSGTDFTLTISSLEPEDFAVYYCQQRSNWPRTFGQGTKVEIK
notes: IgG1, K409R

In this test the target is T1, HER2 on HER2-positive AU565 cells (human, UniProt P04626 23-1255).
T1 construct: whole, on cells
Put plainly: FACS, AU565 cells. Here is the method:
Cells (1×10^5 cells/well) were incubated in polystyrene 96-well round-bottom plates (Greiner bio-one 650101) with serial dilutions of antibody preparations (range 2 to 10000 ng/mL in 4-fold dilutions for Jurkat cells and range 1 to 3000 ng/mL in 4-fold dilutions for on AU565 cells) in 100 μL PBS/0.1% BSA/0.02% azide at 4° C. for 30 min.
After washing twice in PBS/0.1% BSA/0.02% azide, cells were incubated in 100 μL with secondary antibody at 4° C. for 30 min. As a secondary antibody, R-Phycoerythrin (PE)-conjugated goat-anti-human IgG F(ab′)₂ (109-116-098, Jackson ImmunoResearch Laboratories, Inc., West Grove, Pa.) diluted 1/100 in PBS/0.1% BSA/0.02% azide, was used for all experiments. Next, cells were washed twice in PBS/0.1% BSA/0.02% azide, resuspended in 150 μL PBS/0.1% BSA/0.02% azide and analyzed on a FACS CantoII (BD Biosciences). Binding curves were analyzed using non-linear regression (sigmoidal dose-response with variable slope) using GraphPad Prism V5.04 software (GraphPad Software, San Diego, Calif., USA).
On the technique in general: In flow cytometry, cells or beads pass a laser one at a time.
As for B1, the binding result is listed as “binds”.
As for B2, the entry is “binds”; as for B3, “binds”; as for B4, “binds”.
As for B5, the entry is “binds”.

(Values after patent US20150337049A1 (Genmab, published 2015).)
